The text below walks through data of patent US20180147257A1 (Stanford University, published 2018).

The assay addresses T1, PDL1 displayed on yeast cells (UniProt Q9NZQ7 19-238, limits assumed).
T1 construct: Control for the yeast display staining; also called closest CD277 structural homologue
Put plainly: FACS staining of yeast displaying PDL1 with purified LTβR-IgG1 fusion protein.

T1 sequence (Q9NZQ7 19-238 limits assumed): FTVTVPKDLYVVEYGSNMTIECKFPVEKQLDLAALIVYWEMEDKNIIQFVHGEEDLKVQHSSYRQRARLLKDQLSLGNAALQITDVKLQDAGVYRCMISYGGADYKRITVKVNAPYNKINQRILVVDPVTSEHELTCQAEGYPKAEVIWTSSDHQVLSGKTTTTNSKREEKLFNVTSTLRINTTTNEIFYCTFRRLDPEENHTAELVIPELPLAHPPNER

B1: LTβR-IgG1 fusion protein (Fc fusion, UniProt P36941 31-227, looked up)
chain: QAVPPYASENQTCRDQEKEYYEPQHRICCSRCPPGTYVSAKCSRIRDTVCATCAENSYNEHWNYLTICQLCRPCDPVMGLEEIAPCTSKRKTQCRCQPGMFCAAWALECTHCELLSDCPPGTEAELKDEVGKGNNHCVPCKAGHFQNTSSPSARCQPHTRCENQGLVEAAPGTAQSDTTCKNPLEPLPPEMSGTMLM
notes: Purified fusion protein; also called LTBR-IgG1 fusion protein; not shown: IgG1 part of the fusion
With B1, the binding result is “no binding”.
